We go through 94 variants from the supplement of paper PMC10567573.

To fix the notation:
B1: NET1 (parent)
chain: PTPAKRRSSALWSEMLDITMKESL
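Note: lentivirally expressed fusions sorted by FACS into six bins by GFP to DsRed ratio, PSI derived from sequencing read proportions per bin multiplied by bin number.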

The variants in the data set derive from B1. In words: protein stability index of a GFP-peptide fusion (GPS, HEK-293T) (PSI 1-6); higher = more stable. Conditions: c terminus: a fixed tail appended.
For PTPAKRRSSALWSELLDITMKESL [M15L], the protein stability index was determined as 2.91.

For PTPAKRRSSALWSEMLDITMKESG [L24G], the protein stability index was found to be 2.47.

With PTPAKRRSSALWSEMLDITMKESQ [L24Q], the protein stability index was determined as 1.92.

PTPAKRRSSALWSEMLDITMKESD [L24D]: the protein stability index was 2.48.

Take PTPIKRRSSALWSEMLDITMKESL [A4I]: the protein stability index is 1.99.

Take PTPLKRRSSALWSEMLDITMKESL [A4L]: the protein stability index was found to be 1.85.

On to PTPEKRRSSALWSEMLDITMKESL [A4E], for which the protein stability index came to 2.48.

For PTPRKRRSSALWSEMLDITMKESL [A4R], the protein stability index was determined as 2.03.

For PTPWKRRSSALWSEMLDITMKESL [A4W], the protein stability index was 2.27.

For the variant PTPKKRRSSALWSEMLDITMKESL [A4K], the protein stability index stood at 2.63.

As for PTPMKRRSSALWSEMLDITMKESL [A4M], the protein stability index was 2.07.

Take PTPDKRRSSALWSEMLDITMKESL [A4D]: the protein stability index is 2.46.

With PTPTKRRSSALWSEMLDITMKESL [A4T], the protein stability index was found to be 1.95.

In the case of PTPCKRRSSALWSEMLDITMKESL [A4C], the protein stability index worked out at 1.47.

In the case of PTPAKRRSSALWSEMLDIRMKESL [T19R], the protein stability index is 1.81.

Regarding PTPAKRRSSALWSEMLDILMKESL [T19L], the protein stability index came to 1.66.

For the variant PTPAKRRSSALWSEMLDIHMKESL [T19H], the protein stability index turned out to be 2.43.

Turning to PTPAKRRSSALWSEMLDITMKEQL [S23Q], the protein stability index was 2.47.

For PTPAKRRSSALWSEMLDITMKEML [S23M], the protein stability index amounted to 1.33.

In the case of PTPAKRRQSALWSEMLDITMKESL [S8Q], the protein stability index was 2.33.

For PTPAKRRTSALWSEMLDITMKESL [S8T], the protein stability index was 2.9.

Consider PTPAKRRDSALWSEMLDITMKESL [S8D], for which the protein stability index turned out to be 2.65.

Consider PTPAKRRFSALWSEMLDITMKESL [S8F], for which the protein stability index came to 1.68.

On to PTPAKRRRSALWSEMLDITMKESL [S8R], for which the protein stability index was 1.65.

With PTPAKRRSVALWSEMLDITMKESL [S9V], the protein stability index worked out at 1.88.

In the case of PTPAKRRSFALWSEMLDITMKESL [S9F], the protein stability index worked out at 2.05.

As to PTPAKRRSGALWSEMLDITMKESL [S9G], the protein stability index was found to be 2.79.

Regarding LTPAKRRSSALWSEMLDITMKESL [P1L], the protein stability index amounted to 2.25.

HTPAKRRSSALWSEMLDITMKESL [P1H]: the protein stability index came to 3.04.

In the case of QTPAKRRSSALWSEMLDITMKESL [P1Q], the protein stability index was 2.78.

For NTPAKRRSSALWSEMLDITMKESL [P1N], the protein stability index stood at 2.33.

For the variant TTPAKRRSSALWSEMLDITMKESL [P1T], the protein stability index was 1.67.

Turning to PTPAKRRSSAKWSEMLDITMKESL [L11K], the protein stability index was 1.62.

In the case of PTPAKRRSSAQWSEMLDITMKESL [L11Q], the protein stability index worked out at 2.27.

Consider PTPASRRSSALWSEMLDITMKESL [K5S], for which the protein stability index was 2.19.

For the variant PTPAARRSSALWSEMLDITMKESL [K5A], the protein stability index worked out at 2.34.

For PTPAGRRSSALWSEMLDITMKESL [K5G], the protein stability index worked out at 2.59.

PTPAIRRSSALWSEMLDITMKESL [K5I]: the protein stability index was 2.42.

With PTPAERRSSALWSEMLDITMKESL [K5E], the protein stability index was 2.54.

For PTPAKRDSSALWSEMLDITMKESL [R7D], the protein stability index amounted to 3.36.

With PTPAKRWSSALWSEMLDITMKESL [R7W], the protein stability index amounted to 2.36.

For the variant PTPAKRGSSALWSEMLDITMKESL [R7G], the protein stability index stood at 2.38.

For PTPAKRQSSALWSEMLDITMKESL [R7Q], the protein stability index came to 2.54.

For the variant PTPAKRRSSALFSEMLDITMKESL [W12F], the protein stability index was determined as 3.26.

Turning to PTPAKRRSSALMSEMLDITMKESL [W12M], the protein stability index is 3.51.

Consider PTPAKRRSSALNSEMLDITMKESL [W12N], for which the protein stability index was 4.79.

For the variant PTPAKRRSSALWSEMLDITIKESL [M20I], the protein stability index was determined as 2.09.

For PTPAKRRSSALWSEMLDITRKESL [M20R], the protein stability index came to 3.42.

As for PTPAKRRSSALWSEMLDITNKESL [M20N], the protein stability index came out at 2.74.

For PTPAKRRSSALWSEMLDITDKESL [M20D], the protein stability index was 2.58.

Consider PTPAKRRSSALWSEMLDITFKESL [M20F], for which the protein stability index stood at 1.88.

With PTPAKRRSSALWSEMLDITGKESL [M20G], the protein stability index was 3.44.

On to PTPAKRRSSALWSEMLDITHKESL [M20H], for which the protein stability index is 2.45.

As for PTPAKRRSSALWSLMLDITMKESL [E14L], the protein stability index was 1.5.

With PTPAKRRSSALWSHMLDITMKESL [E14H], the protein stability index was found to be 2.2.

PTPAKRRSSALWSCMLDITMKESL [E14C]: the protein stability index turned out to be 1.15.

Consider PTPAKRRSSALWSIMLDITMKESL [E14I], for which the protein stability index was found to be 3.13.

PTPAKRRSSPLWSEMLDITMKESL [A10P]: the protein stability index was 2.

Turning to PTPAKRRSSMLWSEMLDITMKESL [A10M], the protein stability index turned out to be 2.14.

Regarding PTPAKRRSSNLWSEMLDITMKESL [A10N], the protein stability index came to 2.67.

As to PSPAKRRSSALWSEMLDITMKESL [T2S], the protein stability index was 1.62.

As for PNPAKRRSSALWSEMLDITMKESL [T2N], the protein stability index is 2.38.

PVPAKRRSSALWSEMLDITMKESL [T2V]: the protein stability index was 2.54.

As to PGPAKRRSSALWSEMLDITMKESL [T2G], the protein stability index was 2.06.

Take PHPAKRRSSALWSEMLDITMKESL [T2H]: the protein stability index came out at 2.85.

Turning to PQPAKRRSSALWSEMLDITMKESL [T2Q], the protein stability index was found to be 2.33.

For PTPAKRRSSALWSEMLDWTMKESL [I18W], the protein stability index amounted to 1.91.

On to PTPAKRRSSALWSEMLDHTMKESL [I18H], for which the protein stability index was 2.53.

With PTPAKRRSSALWSEMLDTTMKESL [I18T], the protein stability index came out at 2.62.

PTPAKRRSSALWSEMLLITMKESL [D17L]: the protein stability index came to 2.07.

On to PTPAKRRSSALWSEMLYITMKESL [D17Y], for which the protein stability index was found to be 2.83.

Consider PTPAKRRSSALWSEMLFITMKESL [D17F], for which the protein stability index is 2.

Regarding PTPAKRRSSALWSEMLRITMKESL [D17R], the protein stability index worked out at 2.27.

Turning to PTPAKRRSSALWSEMLCITMKESL [D17C], the protein stability index came to 1.53.

For PTPAKRRSSALWMEMLDITMKESL [S13M], the protein stability index worked out at 2.64.

Regarding PTPAKRRSSALWPEMLDITMKESL [S13P], the protein stability index is 2.71.

Regarding PTPAKRRSSALWFEMLDITMKESL [S13F], the protein stability index came to 1.75.

PTPAKRRSSALWNEMLDITMKESL [S13N]: the protein stability index was 2.49.

As for PTPAKRRSSALWDEMLDITMKESL [S13D], the protein stability index was found to be 3.58.

PTPAKRRSSALWKEMLDITMKESL [S13K]: the protein stability index amounted to 2.34.

For PTLAKRRSSALWSEMLDITMKESL [P3L], the protein stability index was determined as 2.1.

For the variant PTIAKRRSSALWSEMLDITMKESL [P3I], the protein stability index came out at 2.49.

As to PTPAKRRSSALWSEMLDITMKMSL [E22M], the protein stability index came to 2.6.

Take PTPAKRRSSALWSEMLDITMKHSL [E22H]: the protein stability index was 1.5.

For PTPAKRRSSALWSEMIDITMKESL [L16I], the protein stability index is 2.84.

Regarding PTPAKRRSSALWSEMYDITMKESL [L16Y], the protein stability index was determined as 2.19.

As for PTPAKRRSSALWSEMLDITMEESL [K21E], the protein stability index was found to be 2.8.

PTPAKRRSSALWSEMLDITMFESL [K21F]: the protein stability index amounted to 1.17.

PTPAKRRSSALWSEMLDITMSESL [K21S]: the protein stability index amounted to 2.73.

On to PTPAKRRSSALWSEMLDITMNESL [K21N], for which the protein stability index worked out at 3.67.

Turning to PTPAKRRSSALWSEMLDITMRESL [K21R], the protein stability index was 2.33.

With PTPAKDRSSALWSEMLDITMKESL [R6D], the protein stability index amounted to 2.79.

Consider PTPAKERSSALWSEMLDITMKESL [R6E], for which the protein stability index was found to be 3.25.

Regarding PTPAKHRSSALWSEMLDITMKESL [R6H], the protein stability index stood at 4.19.
